The values below come from patent publication US20210380680A1 (ZLLP, published 2021).

For assay [1], the target named is T1, human Claudin 18.2 (CLDN18.2) (human, UniProt P56856-2 1-261).
T1 construct: whole, on cells; recombinantly expressed on CHO, HEK293, NCI-N87, NUGC4 or PANC-1 cells; also called CHO-CLDN18.2
Nature of the assay: FACS on CHO-CLDN18.2 cells.

For assay [2], the target named is T1, human Claudin 18.2 (CLDN18.2). Description: cell-based or functional assay.
Assay [3] has the same target. Description: cell-based or functional assay. This is another data set of the same source.

B1: 364D1A7-H2L3 (antibody, V domains shown)
VH: EVQLVESGGGLVQPGGSLRLSCAASGFTFSSFGMHWVRQAPGKGLEWVAYISSGSGSIYYADTVKGRFTISRDNPKNSLYLQMNSLRAEDTAVYYCATSYYYGNALEYWGQGTTVTVSS
VL: DVVLTQSPDSLAVSLGERATINCKSSQSLFNVGNQKNYLTWYQQKPGQTPKLLIYWASTRKSGVPDRFSGSGSGTDFTLTISSLQAEDVAVYYCQNVYSYPLTFGGGTKVEIK
notes: humanized IgG; constant regions not specified
The EC50 is the concentration that produces a half-maximal response. Read a low EC50 as an effect from little substance. On to B1, for which a half-maximal effect in assay [1] (EC50) was put at 4.4 nM.

B2: 364D1A7-H1L3 (antibody, V domains shown)
VH: EVQLVESGGGLVQPGGSLRLSCAASGFTFSSFGMHWVRQAPGKGLEWVSYISSGSGSIYYADTVKGRFTISRDNAKNSLYLQMNSLRAEDTAVYYCATSYYYGNALEYWGQGTTVTVSS
VL: DVVLTQSPDSLAVSLGERATINCKSSQSLFNVGNQKNYLTWYQQKPGQTPKLLIYWASTRKSGVPDRFSGSGSGTDFTLTISSLQAEDVAVYYCQNVYSYPLTFGGGTKVEIK
notes: as for B1
For the molecule B2, the 50% effective concentration (EC50) in assay [1] turned out to be 4.1 nM.

B3: 364D1A7-H3L3 (antibody, V domains shown)
VH: EVQLVESGGGLVQPGGSLRLSCAASGFTFSSFGMHWVRQAPGKGLEWVAYISSGSGSIYYADTVKGRFTLSRDNPKNSLYLQMNSLRAEDTAVYYCATSYYYGNALEYWGQGTTVTVSS
VL: DVVLTQSPDSLAVSLGERATINCKSSQSLFNVGNQKNYLTWYQQKPGQTPKLLIYWASTRKSGVPDRFSGSGSGTDFTLTISSLQAEDVAVYYCQNVYSYPLTFGGGTKVEIK
notes: as for B1
With B3, in assay [1], the EC50 is 3.54 nM.

B4: 364D1A7-H2L1 (antibody, V domains shown)
VH: EVQLVESGGGLVQPGGSLRLSCAASGFTFSSFGMHWVRQAPGKGLEWVAYISSGSGSIYYADTVKGRFTISRDNPKNSLYLQMNSLRAEDTAVYYCATSYYYGNALEYWGQGTTVTVSS
VL: DIVMTQSPDSLAVSLGERATINCKSSQSLFNVGNQKNYLTWYQQKPGQPPKLLIYWASTRKSGVPDRFSGSGSGTDFTLTISSLQAEDVAVYYCQNVYSYPLTFGGGTKVEIK
notes: as for B1
As to B4, in assay [1], the response was half-maximal at 3.47 nM (EC50). This EC50 and that of the molecule before are within 1.5-fold of each other.

B5: 364D1A7-H4L3 (antibody, V domains shown)
VH: DVQLVESGGGLVQPGGSLRLSCAASGFTFSSFGMHWVRQAPGKGLEWVAYISSGSGSIYYADTVKGRFTLSRDNPKNTLYLQMNSLRAEDTAVYYCATSYYYGNALEYWGQGTTVTVSS
VL: DVVLTQSPDSLAVSLGERATINCKSSQSLFNVGNQKNYLTWYQQKPGQTPKLLIYWASTRKSGVPDRFSGSGSGTDFTLTISSLQAEDVAVYYCQNVYSYPLTFGGGTKVEIK
notes: as for B1
The molecule B5 showed a 50% effective concentration (EC50) in assay [1] of 4.56 nM.

B6: 364D1A7-H4L5 (antibody, V domains shown)
VH: DVQLVESGGGLVQPGGSLRLSCAASGFTFSSFGMHWVRQAPGKGLEWVAYISSGSGSIYYADTVKGRFTLSRDNPKNTLYLQMNSLRAEDTAVYYCATSYYYGNALEYWGQGTTVTVSS
VL: DVVLTQSPDSLAVSLGERATISCKSSQSLFNVGNQKNYLTWYQQKPGQTPTLLIYWASTRKSGVPDRFTGSGSGTDFTLTISSLQAEDVAVYYCQNVYSYPLTFGAGTKVEIK
notes: as for B1
As for B6, in assay [2], the “% ADCC @ 6.67 nM, NCI-N87-CLDN18.2, FcR-TANK” value (“% ADCC @ 6.67 nM” for short) worked out at 12% and the “ADCC EC50, NCI-N87-CLDN18.2, FcR-TANK” value worked out at 0.34 nM. Besides, in assay [3], the “% specific cytotoxicity @ 6.67 nM, NUGC4-CLDN18.2, PBMC” value (“% specific cytotoxicity @ 6.67 nM” below) was 26.4% and the “ADCC EC50, NUGC4-CLDN18.2, PBMC” value came to 6.4 nM. The molecule further yielded an EC50 in assay [1] of 4.38 nM.

B7: 364D1A7-H2L4 (antibody, V domains shown)
VH: EVQLVESGGGLVQPGGSLRLSCAASGFTFSSFGMHWVRQAPGKGLEWVAYISSGSGSIYYADTVKGRFTISRDNPKNSLYLQMNSLRAEDTAVYYCATSYYYGNALEYWGQGTTVTVSS
VL: DVVLTQSPDSLAVSLGERATISCKSSQSLFNVGNQKNYLTWYQQKPGQTPTLLIYWASTRKSGVPDRFSGSGSGTDFTLTISSLQAEDVAVYYCQNVYSYPLTFGGGTKVEIK
notes: as for B1
In assay [1], B7 registered a half-maximal effective concentration (EC50) of 3.94 nM. That is a single-digit nanomolar value.

B8: 364D1A7-H4L1 (antibody, V domains shown)
VH: DVQLVESGGGLVQPGGSLRLSCAASGFTFSSFGMHWVRQAPGKGLEWVAYISSGSGSIYYADTVKGRFTLSRDNPKNTLYLQMNSLRAEDTAVYYCATSYYYGNALEYWGQGTTVTVSS
VL: DIVMTQSPDSLAVSLGERATINCKSSQSLFNVGNQKNYLTWYQQKPGQPPKLLIYWASTRKSGVPDRFSGSGSGTDFTLTISSLQAEDVAVYYCQNVYSYPLTFGGGTKVEIK
notes: humanized IgG; constant regions not specified; also called 364D1A7-H41L
Take B8: in assay [2], the “% ADCC @ 6.67 nM” value is 9.3% and the “ADCC EC50, NCI-N87-CLDN18.2, FcR-TANK” value is 0.31 nM. Also, in assay [3], the “% specific cytotoxicity @ 6.67 nM” value came out at 26.4% and the “ADCC EC50, NUGC4-CLDN18.2, PBMC” value turned out to be 7.58 nM. The molecule further showed a concentration for a half-maximal effect (EC50) in assay [1] of 4.12 nM.

B9: 364D1A7-H2L2 (antibody, V domains shown)
VH: EVQLVESGGGLVQPGGSLRLSCAASGFTFSSFGMHWVRQAPGKGLEWVAYISSGSGSIYYADTVKGRFTISRDNPKNSLYLQMNSLRAEDTAVYYCATSYYYGNALEYWGQGTTVTVSS
VL: DIVLTQSPDSLAVSLGERATINCKSSQSLFNVGNQKNYLTWYQQKPGQTPKLLIYWASTRKSGVPDRFSGSGSGTDFTLTISSLQAEDVAVYYCQNVYSYPLTFGGGTKVEIK
notes: as for B1
On to B9, for which, in assay [2], the “% ADCC @ 6.67 nM” value is 9.4% and the “ADCC EC50, NCI-N87-CLDN18.2, FcR-TANK” value was found to be 0.22 nM. Moreover, in assay [3], the “% specific cytotoxicity @ 6.67 nM” value stood at 26.6% and the “ADCC EC50, NUGC4-CLDN18.2, PBMC” value is 9.69 nM. In assay [1], this molecule showed a concentration for a half-maximal effect (EC50) of 6.14 nM.

B10: 364D1A7-H1L5 (antibody, V domains shown)
VH: EVQLVESGGGLVQPGGSLRLSCAASGFTFSSFGMHWVRQAPGKGLEWVSYISSGSGSIYYADTVKGRFTISRDNAKNSLYLQMNSLRAEDTAVYYCATSYYYGNALEYWGQGTTVTVSS
VL: DVVLTQSPDSLAVSLGERATISCKSSQSLFNVGNQKNYLTWYQQKPGQTPTLLIYWASTRKSGVPDRFTGSGSGTDFTLTISSLQAEDVAVYYCQNVYSYPLTFGAGTKVEIK
notes: as for B1
As for B10, in assay [2], the “% ADCC @ 6.67 nM” value is 9.1% and the “ADCC EC50, NCI-N87-CLDN18.2, FcR-TANK” value was found to be 0.26 nM. Besides, in assay [3], the “% specific cytotoxicity @ 6.67 nM” value was 27.5% and the “ADCC EC50, NUGC4-CLDN18.2, PBMC” value worked out at 8.17 nM. In assay [1], this molecule displayed an EC50 of 3.96 nM.

B11: 364D1A7-H3L2 (antibody, V domains shown)
VH: EVQLVESGGGLVQPGGSLRLSCAASGFTFSSFGMHWVRQAPGKGLEWVAYISSGSGSIYYADTVKGRFTLSRDNPKNSLYLQMNSLRAEDTAVYYCATSYYYGNALEYWGQGTTVTVSS
VL: DIVLTQSPDSLAVSLGERATINCKSSQSLFNVGNQKNYLTWYQQKPGQTPKLLIYWASTRKSGVPDRFSGSGSGTDFTLTISSLQAEDVAVYYCQNVYSYPLTFGGGTKVEIK
notes: as for B1
In assay [1], B11 gave an EC50 of 4.05 nM. That is a single-digit nanomolar value.

B12: 364D1A7-H4L4 (antibody, V domains shown)
VH: DVQLVESGGGLVQPGGSLRLSCAASGFTFSSFGMHWVRQAPGKGLEWVAYISSGSGSIYYADTVKGRFTLSRDNPKNTLYLQMNSLRAEDTAVYYCATSYYYGNALEYWGQGTTVTVSS
VL: DVVLTQSPDSLAVSLGERATISCKSSQSLFNVGNQKNYLTWYQQKPGQTPTLLIYWASTRKSGVPDRFSGSGSGTDFTLTISSLQAEDVAVYYCQNVYSYPLTFGGGTKVEIK
notes: as for B1
Consider B12, for which the response in assay [1] was half-maximal at 3.85 nM (EC50).

B13: 364D1A7-H2L5 (antibody, V domains shown)
VH: EVQLVESGGGLVQPGGSLRLSCAASGFTFSSFGMHWVRQAPGKGLEWVAYISSGSGSIYYADTVKGRFTISRDNPKNSLYLQMNSLRAEDTAVYYCATSYYYGNALEYWGQGTTVTVSS
VL: DVVLTQSPDSLAVSLGERATISCKSSQSLFNVGNQKNYLTWYQQKPGQTPTLLIYWASTRKSGVPDRFTGSGSGTDFTLTISSLQAEDVAVYYCQNVYSYPLTFGAGTKVEIK
notes: as for B1
B13 returned a concentration giving a half-maximal response (EC50) in assay [1] of 3.35 nM.

B14: 364D1A7-H4L2 (antibody, V domains shown)
VH: DVQLVESGGGLVQPGGSLRLSCAASGFTFSSFGMHWVRQAPGKGLEWVAYISSGSGSIYYADTVKGRFTLSRDNPKNTLYLQMNSLRAEDTAVYYCATSYYYGNALEYWGQGTTVTVSS
VL: DIVLTQSPDSLAVSLGERATINCKSSQSLFNVGNQKNYLTWYQQKPGQTPKLLIYWASTRKSGVPDRFSGSGSGTDFTLTISSLQAEDVAVYYCQNVYSYPLTFGGGTKVEIK
notes: as for B1
B14 gave a concentration giving a half-maximal response (EC50) in assay [1] of 4.51 nM.

B15: 364D1A7-H3L5 (antibody, V domains shown)
VH: EVQLVESGGGLVQPGGSLRLSCAASGFTFSSFGMHWVRQAPGKGLEWVAYISSGSGSIYYADTVKGRFTLSRDNPKNSLYLQMNSLRAEDTAVYYCATSYYYGNALEYWGQGTTVTVSS
VL: DVVLTQSPDSLAVSLGERATISCKSSQSLFNVGNQKNYLTWYQQKPGQTPTLLIYWASTRKSGVPDRFTGSGSGTDFTLTISSLQAEDVAVYYCQNVYSYPLTFGAGTKVEIK
notes: as for B1
In assay [1], B15 displayed an EC50 of 4.53 nM. This EC50 and that of the molecule before are within 1.5-fold of each other.

B16: 364D1A7-H1L2 (antibody, V domains shown)
VH: EVQLVESGGGLVQPGGSLRLSCAASGFTFSSFGMHWVRQAPGKGLEWVSYISSGSGSIYYADTVKGRFTISRDNAKNSLYLQMNSLRAEDTAVYYCATSYYYGNALEYWGQGTTVTVSS
VL: DIVLTQSPDSLAVSLGERATINCKSSQSLFNVGNQKNYLTWYQQKPGQTPKLLIYWASTRKSGVPDRFSGSGSGTDFTLTISSLQAEDVAVYYCQNVYSYPLTFGGGTKVEIK
notes: as for B1
Turning to B16, a half-maximal effect in assay [1] (EC50) was put at 6.9 nM.

B17: 364D1A7-H1L4 (antibody, V domains shown)
VH: EVQLVESGGGLVQPGGSLRLSCAASGFTFSSFGMHWVRQAPGKGLEWVSYISSGSGSIYYADTVKGRFTISRDNAKNSLYLQMNSLRAEDTAVYYCATSYYYGNALEYWGQGTTVTVSS
VL: DVVLTQSPDSLAVSLGERATISCKSSQSLFNVGNQKNYLTWYQQKPGQTPTLLIYWASTRKSGVPDRFSGSGSGTDFTLTISSLQAEDVAVYYCQNVYSYPLTFGGGTKVEIK
notes: as for B1
Regarding B17, in assay [1], a half-maximal response (EC50) required 4.03 nM.

B18: 364D1A7-H3L4 (antibody, V domains shown)
VH: EVQLVESGGGLVQPGGSLRLSCAASGFTFSSFGMHWVRQAPGKGLEWVAYISSGSGSIYYADTVKGRFTLSRDNPKNSLYLQMNSLRAEDTAVYYCATSYYYGNALEYWGQGTTVTVSS
VL: DVVLTQSPDSLAVSLGERATISCKSSQSLFNVGNQKNYLTWYQQKPGQTPTLLIYWASTRKSGVPDRFSGSGSGTDFTLTISSLQAEDVAVYYCQNVYSYPLTFGGGTKVEIK
notes: as for B1
As for B18, the EC50 in assay [1] stood at 4.78 nM. This EC50 and that of the molecule before are within 1.5-fold of each other.
